Test results reported in the supplement of paper PMC11780869.

Test system: Bacillus subtilis
Test: cleaved RNA product abundance (RNA/gDNA barcode ratio) relative to median wild-type variant (ratio to wild type); higher = more accumulation of the downstream cleavage product
Method in brief: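 Oligos with a 9% error rate were used to build barcoded, mutagenized RNase Y cleavage-site windows within truncated aprE or tetM reporter mRNAs, which were integrated into the B. subtilis chromosome. Cultures were grown in LB at 37°C between OD600 0.0003 and 0.3. Cleaved RNA was gel-selected, reverse transcribed and barcode-sequenced, as were genomic DNA barcodes, and UMIs were collapsed. Cleaved product abundance is the scaled RNA:gDNA barcode ratio, with the median construct carrying the unmutated site as reference.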

[1] = experiment (reporter, strain, medium): exp 4a: truncated aprE reporter, strain BJT201 with 2% xylose (RNase J1 expressed), cleavage site: cggR-gapA (positions -7 to +36 mutated)
[2] = experiment (reporter, strain, medium): exp 2b: truncated aprE reporter, strain BJT200, cleavage site: cggR-gapA (positions -7 to +36 mutated)
[3] = experiment (reporter, strain, medium): exp 8a: truncated aprE reporter, strain BJT201 with 2% xylose (RNase J1 expressed), cleavage site: glnRA (positions -5 to +31 mutated)
[4] = experiment (reporter, strain, medium): exp 6: tetM reporter, strain 168, cleavage site: cggR-gapA (positions -7 to +36 mutated)

Sequence | cleaved RNA product abundance [1] | cleaved RNA product abundance [2] | also measured
ACAGACGAAGGAGCCGCAAAGAAGTTATTAAGGGATCAATAATACCTCAATATAAATATCTCTCACTTATTTAAA | 0.146 | – | –
ACAGACGAAGGAGCCGCACAGAAGTTATTAAGGAATGAATAATCCCTCAATATAAATATCTCTCACTTATTTAAA | 0.143 | – | –
ACAGACGAAGGAGCCGCAAAGAAGTTATTAAGGGATGAATAATCCATCTATATAAATATCTCTCACTTATTTAAA | – | 0.191 | –
CGACATGTCCCGCTTCTTTCATTAATCCGTTAGCAACTGTTTTGCTATACACATTTACATTTTAAGAGGAGGAAT | – | – | cleaved RNA product abundance [3]: 0.372
CGACATGTCCCGCTTCTTTCATTAATCCGTTAGCAACTGTTTTGGTAGATACATTTACCTTTTAAGAGGAGGAAT | – | – | cleaved RNA product abundance [3]: 0.115
ACAGACGAAGGAGCCGCAAAGAAGTTATTAAGGGATGATTAATCCTTCAATATAAATATCTCTCACTTATTTAAA | 0.469 | 0.306 | –
ACAGACGAAGGAGCCGCAAAGAAGTTATTAAGGGATGAACAATCCCTCAATATAAATATCTCTCACTTATTTAAA | 0.864 | 0.842 | cleaved RNA product abundance [4]: 0.875
ACAGACGAAGGAGCCGCAAAGAAGTTATTAAGGGAAGAATAATGCCTCAATATAAATATCTCTCACTTATTTAAA | 0.132 | 0.0918 | –
ACAGACGAAGGAGCCGCAAAGAAGTTATTAAGGGATGAATAATACCTCAATTTAAATATCTCTCACTTATTTAAA | 0.0904 | 0.0845 | –
CGACATGTCCCGCTTCTTTCATTAATCCGTTAGCAACTGTTTTGCTATATACATTTATGTTTTAAGAGGAGGAAT | – | – | cleaved RNA product abundance [3]: 0.888
ACAGACGAAGGAGCCGCAAAGAAGTTATTAAGGGATGAATAATTCCTCAATATACATATCTCTCACTTATTTAAA | 0.498 | – | –
ACAGACGAAGGAGCCGCAAAGAAGTTATTACGGGATGAATCATCCCTCAATATAAATATCTCTCACTTATTTAAA | – | 0.316 | –
ACAGACGAAGGAGCCGCAAAGAAGTTATTAAGGGATGAAAAATCCCTCAATATAATTATCTCTCACTTATTTAAA | 0.171 | – | –
CGACATGTCCCGCTTCTTTCATTAATCCGTTAGCAATTGTTTTGCCATATACATTTACCTTTTAAGAGGAGGAAT | – | – | cleaved RNA product abundance [3]: 0.156
ACAGACGAAGGAGCCGCAAATAAGTTATTAAGGGATGAATATTCCCTCAATATAAATATCTCTCACTTATTTAAA | 1.07 | 0.769 | –
ACAGACGAAGGAGCCGCAAAGAAGTTATTAACGGATGAATAATCCCTTAATATAAATATCTCTCACTTATTTAAA | 0.671 | 0.98 | –
ACAGACGAAGGAGCCGCAATGAAGTTATTAAGGGCTGAATAATCCCTCAATATAAATATCTCTCACTTATTTAAA | 0.472 | 0.583 | –
ACAGACGAAGGAGCCGCAAAGTAGTTATTAAGGGATGAATAATCCCTCAATATATATATCTCTCACTTATTTAAA | 0.884 | – | –
ACAGACGAAGGAGCCGCAAAGAAGTTATTCAGAGATGAATAATCCCTCAATATAAATATCTCTCACTTATTTAAA | 0.159 | 0.167 | –
CGACATGTCCCGCTTCTTTCATTACTCCGTCAGCAACTGTTTTGCTATATACATTTACCTTTTAAGAGGAGGAAT | – | – | cleaved RNA product abundance [3]: 0.381
CGACATGTCCCGCTTCTTTCATTAATCCGTCAGCAACTGTATTGCTATATACATTTACCTTTTAAGAGGAGGAAT | – | – | cleaved RNA product abundance [3]: 0.214
ACAGACGAAGGAGCCGCAAAGAAGTTATTATGGGATGAATAATTCCTCAATATAAATATCTCTCACTTATTTAAA | 0.246 | 0.149 | –
ACAGACGAAGGAGCCGCCAAGAAATTATTAAGGGATGAATAATCCCTCAATATAAATATCTCTCACTTATTTAAA | 0.549 | – | –

Sequence | cleaved RNA product abundance [1] | cleaved RNA product abundance [2] | also measured
ACAGACGAAGGAGCCGCAAAGACGTTATTAAGGGATGAATAATCCTTCAATATAAATATCTCTCACTTATTTAAA | – | 0.427 | –
CGACATGTCCCGCTTCTTTCATTAATCCGTTAGAAACTGTATTGCTATATACATTTACCTTTTAAGAGGAGGAAT | – | – | cleaved RNA product abundance [3]: 0.321
ACAGACGAAGGAGCCGCAAAGAAGTTATTAAGGGATGAATAATCCCTCTGTATAAATATCTCTCACTTATTTAAA | 0.224 | 0.163 | –
CGACATGTCCCGCTTCTTTCATTACTCCGTTAGCAACTGTTTTGCTATATACATTTACCGTTTAAGAGGAGGAAT | – | – | cleaved RNA product abundance [3]: 1.01
ACAGACGAAGGAGCCGCAAAGAAATTATTATGGGATGAATAATCCCTCAATATAAATATCTCTCACTTATTTAAA | 0.277 | – | –
ACAGACGAAGGAGCCGCAAATAAATTATTAAGGGATGAATAATCCCTCAACATAAATATCTCTCACTTATTTAAA | 0.396 | – | –
ACAGACGAAGGAGCCGCAAAGAAGTTATTAAAGGCTGAATAATCCCTCAATATAAATATCTCTCACTTATTTAAA | 0.0571 | 0.0927 | –
ACAGACGAAGGAGCCGCAAAGAAGTTATTAAGGGATAAATAAACCCTCAATATAAATATCTCTCACTTATTTAAA | 0.445 | – | –
CGACATGTCCCGCTTCTTTCATTAATACGTTAGCAACTGTTATGCTATATACATTTACCTTTTAAGAGGAGGAAT | – | – | cleaved RNA product abundance [3]: 0.886
ACAGACGAAGGAGCCGCAAAGAAGTTATTAAGGGATAAATAATCCCTCAATATAAATAACTCTCACTTATTTAAA | 0.823 | – | –
ACAGACGAAGGAGCCGCAAAGAAGTTATTAAGGGATGAATAATACCTCAATATAAATATCTCTCACTTATTAAAG | 0.148 | – | –
ACAGACGAAGGAGCCGCAAAGAAGGTATTAAGGGATAAATAATCCCTCAATATAAATATCTCTCACTTATTTAAA | 1.29 | – | –
CGACATGTCCCGCTTCTTTCATTAATCAGGTAGCAACTGTTTTGCTATATACATTTACCTTTTAAGAGGAGGAAT | – | – | cleaved RNA product abundance [3]: 0.783
ACAGACGAAGGAGCCGCAAAGAAGTTAATAATGGATGAATAATCCCTCAATATAAATATCTCTCACTTATTTAAA | 0.137 | 0.104 | –
ACAGACGAAGGAGCCGCAAAGAAGTTATTAATGGATGAATAATCCCTCCATATAAATATCTCTCACTTATTTAAA | 0.12 | – | –
ACAGACGAAGGAGCCGCAATGAAGTTATTATGGGATGAATAATCCCTCAATATAAATATCTCTCACTTATTTAAA | 0.464 | – | –
ACAGACGAAGGAGCCGCAAAGAAGTTATTAAGGGATGAATAATCCCTCAATATACATATCTCTCACTTATTTAAA | 0.838 | 0.933 | cleaved RNA product abundance [4]: 0.498
ACAGACGAAGGAGCCGCAAAGAAGTTATTACGTGATGAATAATCCCTCAATATAAATATCTCTCACTTATTTAAA | 0.113 | 0.0928 | –
ACAGACGAAGGAGCCGCATAGAAGTTATTAAGGGATGAATAATCCCTCCATATAAATATCTCTCACTTATTTAAA | 0.24 | – | –
CGACATGTCCCGCTTCTTTCATTAATCCGTTATCAACTGTTTTGCTATATACATTCACCTTTTAAGAGGAGGAAT | – | – | cleaved RNA product abundance [3]: 0.214
ACAGACGAAGGAGCCGCAAAGAAGTTATTAAGGGATGTATATTCCCTCAATATAAATATCTCTCACTTATTTAAA | 0.88 | – | –
ACAGACGAAGGAGCCGCAAAGAAGCTATTATGGGATGAATAATCCCTCAATATAAATATCTCTCACTTATTTAAA | 0.346 | – | –
ACAGACGAAGGAGCCGCAAAGAAGTTATTAGGGGATGGATAATCCCTCAATATAAATATCTCTCACTTATTTAAA | 0.709 | 0.481 | –
